T1: full length serine hydroxymethyltransferase (SEQ ID NO: 74), c-Myc tagged at the C-terminus (Escherichia coli, UniProt A7ZPZ4 1-417)
T1 construct: Expressed in Escherichia coli (DH5α); tested denatured in Western blotting of cell lysate; also called SHMT; full length: wild-type
T1 sequence: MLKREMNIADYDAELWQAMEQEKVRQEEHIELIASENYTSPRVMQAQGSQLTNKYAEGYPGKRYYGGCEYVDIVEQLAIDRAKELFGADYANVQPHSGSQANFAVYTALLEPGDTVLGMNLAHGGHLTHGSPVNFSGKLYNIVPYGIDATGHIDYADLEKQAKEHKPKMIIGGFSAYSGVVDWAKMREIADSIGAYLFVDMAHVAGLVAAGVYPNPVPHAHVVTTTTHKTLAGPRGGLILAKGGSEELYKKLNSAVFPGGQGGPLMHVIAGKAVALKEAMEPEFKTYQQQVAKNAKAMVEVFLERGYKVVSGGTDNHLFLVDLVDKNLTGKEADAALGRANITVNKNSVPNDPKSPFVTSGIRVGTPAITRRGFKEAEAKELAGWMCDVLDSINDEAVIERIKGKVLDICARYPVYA

T2: serine hydroxymethyltransferase Δ2-28 mutant (Escherichia coli, UniProt A7ZPZ4 29-417)
T2 construct: Expressed in Escherichia coli cells and 293T cells; tested in Western blotting of cell lysate; not shown: Myc-tag (40aa) at the C-terminus
T2 sequence: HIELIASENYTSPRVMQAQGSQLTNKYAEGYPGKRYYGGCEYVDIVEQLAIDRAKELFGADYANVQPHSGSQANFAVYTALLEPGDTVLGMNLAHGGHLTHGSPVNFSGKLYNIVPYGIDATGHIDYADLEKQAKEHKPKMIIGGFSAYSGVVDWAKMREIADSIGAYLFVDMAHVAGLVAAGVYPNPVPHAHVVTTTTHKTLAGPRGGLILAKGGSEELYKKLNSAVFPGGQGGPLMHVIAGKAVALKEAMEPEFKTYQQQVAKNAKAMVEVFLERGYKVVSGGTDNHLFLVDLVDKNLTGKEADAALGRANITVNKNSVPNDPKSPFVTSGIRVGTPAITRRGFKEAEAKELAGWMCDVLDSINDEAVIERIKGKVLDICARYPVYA

B1: W34 monoclonal IgA antibody (antibody, V domains shown)
VH: DVQLQESGPGMVKPSQSLSLTCTVTGYSITSGYDWHWIRHFPGNKLEWMGYISYSGSTDYNPALRSRISITRDTSTNHFFLKVNSVTTEDTATYYCARDGYGSNYVMAYWGQGTSVTVSS
VL: QIVLTQSPAIMSASPGEKVTITCSASSSVHYIHWFQLKPGTSPKLWIYSTSNLASGVPARFSGSGSGTSYSLTISRMEAEDAATYYCQQRSSYPLTFGAGTKLELKR
notes: Mouse IgA from hybridoma
B2: W27 monoclonal IgA antibody (antibody, V domains shown)
VH: EVQLQQSGSELVKSGASVKLSCTVSGFNFTDYYIHWVRQRTEQGLEWIGRIDPENDETTYAPKFQGKATMTADTSSNTAYLQLTSLTSEDTAVYYCARSTVLDYWGHGTTLTVSS
VL: DVLMTQTPLSLPVSLGDQASISCRASQSIVHTNGNTYLEWYLQKPGQSPKLLIYKVSNRFSGVPDRFSGSGSGTDFILKISRVEAEDLGVYYCFQGSHVPPTFGGGTKLEVKR
notes: Mouse IgA from a hybridoma of small-intestinal lamina propria B cells of wild-type C57BL/6 mice, partially purified
B3: W11 monoclonal IgA antibody (antibody, V domains shown)
VH: QVQLKQSGPGLVQPSQSLSITCTVSGFSLTNYGVHWIRQSPGKGLEWLGVIWSGGRIDYNAAFISRLNINKDNSKSQVFFKMNSLQTDDTAIYYCARTYDGYYFFQYWGQGTPLTVSS
VL: DVVMTQTPLSLPVSLGDEASISCRSSRSLIHSNGHTFLDWYLQKPGQSPKLLIYKVSNRFSGVPDRFSGSGSGTDFTLKISRVEAEDLGVYFCAQSTHAPLLTFGAGTKLELKR
notes: Mouse IgA from hybridoma

Columns and labels:
[1] = biological target: T1, full length serine …; assay: Western blot of c-Myc-tagged full-length SHMT expressed in E. coli (DH5α)
[2] = biological target: T2, serine hydroxymethyltransferase Δ2-28 …; assay: Western blot of cell lysates (E. coli and 293T expression)

Binder	binding result [1]	binding result [2]
B1	binds	
B2		no binding
B3	binds	

From US20180009906A1 (CURED, published 2018)
